In paper PMC9113379 (Cell & Bioscience, 2022) one finds binding result and Kd data, which are given here for 6 molecules.

B1: REGN10933 mAb (antibody, V domains shown)
VH: QVQLVESGGGLVKPGGSLRLSCAASGFTFSDYYMSWIRQAPGKGLEWVSYITYSGSTIYYADSVKGRFTISRDNAKSSLYLQMNSLRAEDTAVYYCARDRGTTMVPFDYWGQGTLVTVSS
VL: DIQMTQSPSSLSASVGDRVTITCQASQDITNYLNWYQQKPGKAPKLLIYAASNLETGVPSRFSGSGSGTDFTFTISGLQPEDIATYYCQQYDNLPLTFGGGTKVEIK
B2: CB6 mAb (antibody, V domains shown)
VH: EVQLVESGGGLVQPGGSLRLSCAASGFTVSSNYMSWVRQAPGKGLEWVSVIYSGGSTFYADSVKGRFTISRDNSMNTLFLQMNSLRAEDTAVYYCARVLPMYGDYLDYWGQGTLVTVSS
VL: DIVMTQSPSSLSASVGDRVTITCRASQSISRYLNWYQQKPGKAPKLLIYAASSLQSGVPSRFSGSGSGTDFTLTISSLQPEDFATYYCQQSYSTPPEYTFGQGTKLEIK
B3: R3P2-B5 mAb (antibody, V domains shown)
VH: QVQLVQSGGGLIQPGGSLRLSCAASGVTVSSNYMSWVRQAPGRGLEWVSLIYPGGSTYYADSVKGRFTISRDNSRNTLYLQMNSLRAEDTAVYYCARDLSEKGGMDVWGQGTLVTVSS
VL: EIVMTQSPGTLSLSPGERVTLSCRTSQSVSRFFSWYQQKPGQAPRLLIHTASTRATDIPDRFSASGSGTDFTLTISRLEPEDSAMYYCQHYGASPYTFGQGTKVDIK
B4: R3P2-G1 mAb (antibody, V domains shown)
VH: B3 VH with L113T
VL: QAVLTQPPSVSVAPGKTARITCGGNHIGSKSVNWYQQKSGQAPVLVIYSDSDRPSGIPARFSGSNSGDTATLTISRVEAGDEADYYCQVWDNRSDHWVFGGGTQLTVL
B5: R3P2-A2 mAb (antibody, V domains shown)
VH: B3 VH with L113M
VL: EIVMTQSPSVLPLFPGESGSLSCRASQNVGDFLAWYQHKPGQAPKLLIYGATNRPTGIPDRFSGTGSGTDFTLTISRMEPEDFAVYFCQQYGTSPPITFGPGTKVDIK
B6: R3P1-E4 mAb (antibody, V domains shown)
VH: B3 VH with L113T
VL: DIVMTQSPSSLSASVGDRVTITCRASQGISSYLAWYQQKPGKAPKLLIYAASTLQSGVPSRFSGSGSGTDFTLTISSLQPEDFATYYCQQLNSYPRFGPGTKVEIK

Numbering of substitutions follows the chain as printed.

For orientation: Kd means the constant that tells how readily two partners part at equilibrium. Read a low Kd as a tighter complex.

In the first experiment the target is T1, SARS-CoV-2 S protein RBD domain (wild type) (SARS-CoV-2, UniProt P0DTC2). The experiment is described as follows: ELISA. As to conditions: both partners purified.
Turning to B1, the binding result is given as “binds”. Turning to B2, the binding result is listed as “binds”. Still for that read-out and setting: the same measure for B3: “binds”; for B4: “binds”.

The target in the next experiment is T1, SARS-CoV-2 S protein RBD domain (wild …). The experiment is described as follows: SPR. As to conditions: both partners purified.
B5: the equilibrium dissociation constant (Kd) came to 2.32 nM. Still for that read-out and setting: with B6 the figure was 0.82 nM.
